Source: publication doi:10.1101/2023.09.08.556779, “Molecular model of a bacterial flagellar motor in situ reveals a “parts-list” of protein adaptations to increase torque” (bioRxiv, 2024)

Key:
[1] = biological target: PflB (C. jejuni 81–176 (endogenous in minicells)); test: cryo-EM structure; in situ single particle analysis of C. jejuni ΔflhG ΔflaAB minicells, C17 symmetry; focused refinement of the periplasmic scaffold and first basal disk ring to 7.9 Å; AlphaFold models docked or flexibly fitted
[2] = biological target: PflC, recombinant (C. jejuni); test: SEC + other: mass photometry; analytical SEC on ENrich SEC 650 in 1× PBS, calibrated with 15–600 kDa standards; mass photometry in PBS
[3] = biological target: the molecule itself; test: as above
[4] = biological target: the molecule itself; test: cryo-EM structure; in situ single particle analysis of C. jejuni ΔflhG ΔflaAB minicells, C17 symmetry; focused refinement of the periplasmic scaffold and first basal disk ring to 7.9 Å; AlphaFold models docked or flexibly fitted

PflB (from UniProt A0A6F9L7Y3 1-820) (natural protein)
stoichiometry N [1]: 17

PflC, recombinant (natural protein)
stoichiometry N [2]: 2

B1: PflCN (Δ236–349), recombinant (domain or fragment)
chain: GIERPKFEDFLAGYERNKASMLNYEGMPAFALSENLLAVLKQPNTKLNKYVKYDPFLNLYLVRTDFSLIPTPMGDEEKLTRNDWVGIWDPNKPYIGHIKYLAQNIDEKDQLDFNSKIGLLGTPCCEMMGIALNNSSFIGNRYLKHFMKYNDVYWGDIGVDFVVRENKIYVNNVRKNPQFLINDQVISVDGLPANDLRKLNEKILFADRGSTLYFQVLRDNSGGDGKFQFFIRLTK
stoichiometry N [3]: 2

B2: FliL (natural protein)
chain: MDEELENEETKKKKGGSLVIIIVILLFVLLLSIMGVIAWLISSSSSDESEVKEAPKEEAKADKPKVSAPTQRGSDFANIGPMYPLDPFTLNLLSDSGSRYVKCTIELEQNSELLKPELDKKVPVIRDIIIRTLTAKTFEEVSTQKGKERLKDELVGKINEILTDGFIKNVYFTDFVVS
notes: FliL of Campylobacter jejuni 81–176; an arc of four in each asymmetric unit of the proximal disk; source: endogenous, C. jejuni 81–176 (minicells imaged in situ; lysate of formaldehyde-crosslinked cells)
stoichiometry N [4]: 4
